Measured values reported in publication PMC4441150, “Synergistic function of four novel thermostable glycoside hydrolases from a long-term enriched thermophilic methanogenic digester” (Frontiers in Microbiology, 2015).

How the values were obtained:
Experiment in all cases: purified protein
purified protein [1] = substrate: O=[N+]([O-])c1ccc(O[C@@H]2O[C@H](CO)[C@@H](O)[C@H](O)[C@H]2O)cc1; conditions: 1-50 mM substrate
purified protein [2] = substrate: O=[N+]([O-])c1ccc(O[C@@H]2OC[C@@H](O)[C@H](O)[C@H]2O)cc1; format: biochemical, bacterium enrichment culture; conditions: 1-50 mM substrate
purified protein [3] = substrate: O=[N+]([O-])c1ccc(O[C@@H]2O[C@H](CO)[C@@H](O[C@@H]3O[C@H](CO)[C@@H](O)[C@H](O)[C@H]3O)[C@H](O)[C@H]2O)cc1; format: biochemical, bacterium enrichment culture; conditions: optimal conditions of the enzyme (optimum pH 6.0, 65°C), 1-50 mM substrate
purified protein [4] = substrate: O=[N+]([O-])c1ccc(O[C@@H]2O[C@@H](CO)[C@H](O)[C@H]2O)cc1; format: biochemical, bacterium enrichment culture; conditions: optimal conditions of the enzyme (optimum pH 4.5, 60°C), 1-50 mM substrate
[5] = optimal conditions of the enzyme (optimum pH 6.0, 65°C), pH 6.0, 65.0 °C
[6] = optimal conditions of the enzyme (optimum pH 6.0, 65°C)
[7] = optimal conditions of the enzyme (optimum pH 4.5, 60°C), pH 4.5, 60.0 °C
[8] = optimal conditions of the enzyme (optimum pH 4.5, 60°C)

Protein | Km (purified protein [1]; [5]) [mM] | kcat (purified protein [1]; [5]) [s⁻¹] | kcat/Km (purified protein [1]; [5]) [M⁻¹ s⁻¹] | Km (purified protein [2]; [6]) [mM] | kcat (purified protein [2]; [6]) [s⁻¹] | kcat/Km (purified protein [2]; [6]) [M⁻¹ s⁻¹] | Km (purified protein [3]) [mM] | kcat (purified protein [3]) [s⁻¹] | kcat/Km (purified protein [3]) [M⁻¹ s⁻¹] | Km (purified protein [1]; [7]) [mM] | kcat (purified protein [1]; [7]) [s⁻¹] | kcat/Km (purified protein [1]; [7]) [M⁻¹ s⁻¹] | Km (purified protein [2]; [8]) [mM] | kcat (purified protein [2]; [8]) [s⁻¹] | kcat/Km (purified protein [2]; [8]) [M⁻¹ s⁻¹] | Km (purified protein [4]) [mM] | kcat (purified protein [4]) [s⁻¹] | kcat/Km (purified protein [4]) [M⁻¹ s⁻¹]
Bgl8520 (bacterium enrichment culture) (protein, no signal peptide; pET-28a(+) in E. coli BL21 (DE3), Ni-NTA purified) MNKHNKGGLLMKFPENFVWGAAAASYQIEGAAYEDGKGLSVWDIFTRQKGAIENGDNGDIACNHYHRYKEDVQLMKELGLQAYRLSLSWPRILANGTGKVNQKGLDFYDKLIDELLENGIEPYITLFHWDYPYELYKKGGWLNPDSPDWFAEYTEVVVQKLSDRVKNWITINEPQVFVNLGHKDGVHAPGLKLGMEDLLQISHNVLLAHGKGARVIRETSVQDCRIGLAPSDSPVFPATKSEENIQAARRASFSVEDKGLWAINWWMDPVILGRYPEEGLKIFEEYLPEIKTDDFKIISEPIDFFGVNIYQGVCVKLDDKGQAVPAERKVGYARNAYYWPITPEALYWGPRFYYERYKKPVIITENGMSNVDWVAVDGKVHDPQRIDFTNRYLRELQKAGEDGVDIQGYFHWSLMDNFEWAQGYLERFGLIYVDFETGERIIKDSAYWYKKVIETKGEALYA | 0.9 | 124 | 140000 | 0.7 | 0.3 | 430 | 2.7 | 8.2 | 3000 |  |  |  |  |  |  |  |  | 
Xyl522 (bacterium enrichment culture) (protein, no signal peptide; pET-28a(+) in E. coli BL21 (DE3), Ni-NTA purified) MVYKMLFQRSDLPMEERIKDLISRLTLEEKVSQLLYDSAAIPHLGIPEYNWWNECLHGVARAGTATVFPQAIGMAASFNAPLLQQVAEVIATEARAKHHEAARHGDRGIYKGLTFWTPNINIFRDPRWGRGQETYGEDPYLTAQLGIAFVKGLQGDHPKYLKAAACAKHFAVHSGPESLRHSFDARCSQKDLYETYLPAFRALVTEAKVESVMGAYNRTNGEPCCASPTLLQKILREDWGFEGHVVSDCGAIHDIHAHHKVTGSPEESAALAVKNGCDLNCGRVYPALVEAVAQGLISEEEIDRALARLLRTKFKLGLFDPEEEVPYAQIPYEVVACDEHRSLAREMARQSMVLLKNENNLLPLSKELKTVAVIGPNADSRKVLLGNYFGTSSQLVTALEGIRRKLEPNCRVLYAEGCDLTTTRPGYWGNSPREGFAEALAVAERADAVIMCMGVSPDLEGEEGAAANSDGGGDRLTLELPGMQNELIKEVAALGKPLVLVLFSGSPLAVTWAQENVPAIIQAWYPGEEGGNALADIIFGDYNPAGRLPITFVKSLDQLPPFTDYSMEGRTYRYLKEEPLYPFGYGLSYTSFTYSNLQAPAELNIGEELVVQVDVENTGARAGDEVVQLYIRHRDASAAVPHHSLQGFARIRLEPGEKRTVTFRLAPRQLAVFDEEGRCLVEPGAVELLAGGSQPDARSEELTGQKPLLGQVLLVGETLELPR |  |  |  |  |  |  |  |  |  | 15.7 | 1.4 | 89.2 | 8.8 | 14.3 | 1600 | 10.0 | 3.2 | 320
